# Variants at the floor of the assay were thinned out.
# B1: TPR 5TU (parent)
# chain: GGAUCUUCUCGAUCUAACAAAAAAGACAAAUCUGCCACAAAGCUUGAGAGCAUCUUCGGAUGCAGAGGCGGCAGCCUUCGGUGGCGCGAUAGCGCCAACGUUCUCAACUAUGACACGCAAAACGCGUGCUCCGUUGAAUGGAGUUUAUCAUG
# Variants of: B1
# Experiment: polymerase ribozyme fitness, log enrichment relative to wild type (log ratio); higher = more active; in vitro selection for triplet polymerase activity
# In short: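 Only genotypes with ≥10 input reads and ≥1 read per output were kept after Illumina sequencing of input and output libraries. These libraries were PCR-built, transcribed mutants of each subunit of a heterodimeric triplet polymerase ribozyme, each put through one triplicate in vitro selection round with frozen incubation at −7 °C, gel excision of extended constructs, streptavidin-bead capture and RT-PCR. Fitness is a logarithmic ratio of genotype enrichment to wild-type enrichment, from inverse-variance-weighted replicate averages, with the logarithm in base 2.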
row,Variant,polymerase ribozyme fitness (log ratio)
1,A52C G59U,-0.875
2,C51U G67A G83U G94A A98C C99G U109C A120U U145G,≤ -4.2
3,A49U U61G C93A C108G C114A U134A C149G,≤ -4.2
4,G50A C99G,-3.05
5,A52C A66G G71U C125U,≤ -4.2
6,C51A C99U,-1.63
7,A52C U55A C131G,≤ -4.2
8,C51A C76A G86A,≤ -4.2
9,G50A C54U,-1.32
10,C51G G88A A91G A115U U144G U151C,≤ -4.2
11,A52G C96G C131U,-0.425
12,C51G G71A A122G,≤ -4.2
13,A52C U55A A60C C76U G83A C85U C129G A150G,≤ -4.2
14,A52G A113U A150C,≤ -4.2
15,C51A A98U C125G,-0.926
16,A52C C57U G80C A98U,-2.02
17,A52G C69U C93U,-2.89
18,A52G C72U,-0.83
19,G50U G94U C103U,-2.08
20,C51G A73G G94U C95U C118A A142U G152A,≤ -4.2
21,A52C U56A C75U A89U U90G C95G C123G C125A,≤ -4.2

row,Variant,polymerase ribozyme fitness (log ratio)
1,A49U A52U A89G A98G,-3.98
2,A52C G92U C116G,-1.7
3,A49U G94A A119C,-1.28
4,G50U G80A A91G C99G,≤ -4.2
5,G50A A122U A137G,-2.6
6,A49U C75A A91G,-4.15
7,G50A A52C U55G G141C,≤ -4.2
8,G50A A142U,-2.45
9,A52C G83A,-2.46
10,G50A C54G C116U,-2.17
11,G50A G94U A121C,-2.21
12,A52C C76U U101G,-4.01
13,C51A U55A C95A A110U G128C,≤ -4.2
14,G50A G83A C87A A91C G92A U146A,≤ -4.2
15,G50A G58U C95U C118G,-1.92
16,A49U G92U,-0.559
17,C51U G70C C93G,≤ -4.2
18,G50A G94A C116G,-1.53
19,G50A A52G,-1.15
20,A52G C131A,-1.46
21,A49U G59C A73G A119C U134G G136A,-3.39

row,Variant,polymerase ribozyme fitness (log ratio)
1,G50A G92A U101G G117C,-3.96
2,C51A U55G G88C C95A A119C,≤ -4.2
3,G50A G74A U78C A113G G124C,≤ -4.2
4,A49U U56G C57U C96U U102G,-1.32
5,G50A U56A G62C C63A C96G,≤ -4.2
6,G50C G84U,-3.79
7,C51U G58U A91U C96U G100C A138C,≤ -4.2
8,C51A U55G,-2.17
9,A52C G70C C85U C125U,≤ -4.2
10,G50A U145A,-0.516
11,G50A G74U G83A C85G G126U C149A,≤ -4.2
12,G50C G59C U102G,-2.34
13,G50C U56A C57G A66G C95A C99U A113G G140A,-4.04
14,C51U U127A A142G,-4.07
15,A52G C85U U104G,-0.901
16,G50U C132U,-0.763
17,G50U G136U C149G,-4.16
18,C51A G92U U109C,≤ -4.2
19,A49U G50U C125U,-1.77
20,A52C C95A C132G G141A A150G,≤ -4.2
21,G50U A52C C57A G58U A107G,≤ -4.2

row,Variant,polymerase ribozyme fitness (log ratio)
1,G50A U78A G84A G100C A137G,≤ -4.2
2,A49U U148C,-3.02
3,A52C C87A,≤ -4.2
4,G50U G58A A66U C79U C87U G88C A121C,≤ -4.2
5,C51U A60U,-0.791
6,C51A G84C,-2.99
7,C51A G84A,-1.26
8,C51U G86U U145G,-2.27
9,G50C A52G U53A G81C U82G G88U C105G A150G,≤ -4.2
10,G50A G71A C95U U139A,≤ -4.2
11,G50A G65C C76G G92C G100A C125G,≤ -4.2
12,A49U A52C G59A A73U C76G G84U,≤ -4.2
13,G50A G92C,-3.26
14,C51U G67C U135C,≤ -4.2
15,G50A C51U U55G G84A G128A C131G U135C,≤ -4.2
16,C51G A52U C63A A138U,≤ -4.2
17,A49U G74A C79A U90A G94A C123G G133U,≤ -4.2
18,G50A G74C C87A U144C U151C,≤ -4.2
19,C51U C75U C87U U104C A115G A121U A142C,-4.13
20,G50U G140U,-3.88
21,G50A C75G U90G U111C C123G U139A U144C,≤ -4.2
